The values that follow are results of earlier work, collected in US8703913B2, “Sensor” (Medical Research Council, priority 2008, dated 2014).

For data set [1] the following is noted: 37° C.; reported (16); cited from earlier work.
The conditions of data set [2]: reported (19); read-out: dissociation constant for ethenoADP; cited from earlier work.
For data set [3] the following is noted: reported (19), cited from earlier work.

Where two headings read alike, the source gives them in different places.

B1: wild-type ParM: prokaryotic actin homologue encoded on Escherichia coli plasmid R1, accession P11904 (protein, listed as Escherichia coli)
chain: MLVFIDDGSTNIKLQWQESDGTIKQHISPNSFKREWAVSFGDKKVFNYTLNGEQYSFDPISPDAVVTTNIAWQYSDVNVVAVHHALLTSGLPVSEVDIVCTLPLTEYYDRNNQPNTENIERKKANFRKKITLNGGDTFTIKDVKVMPESIPAGYEVLQELDELDSLLIIDLGGTTLDISQVMGKLSGISKIYGDSSLGVSLVTSAVKDALSLARTKGSSYLADDIIIHRKDNNYLKQRINDENKISIVTEAMNEALRKLEQRVLNTLNEFSGYTHVMVIGGGAELICDAVKKHTQIRDERFFKTNNSQYDLVNGMYLIGN
As to B1, the “ATPase activity accelerated by polymerization” value in data set [1] was approximately 3 min⁻¹. Further, the figures for the Kd in data set [2], in data set [3] (read-out: Kd for ethenoATP) and in data set [3] (read-out: dissociation constant for ethenoATP) were 2.4 µM, 0.04 µM and 0.04 µM, respectively. The “ethenoATP bound tighter than ethenoADP” value in data set [3] was 60 fold.
